Assay results: US5723299A, “Somatostatin receptors” (Arch Development Corporation, priority 1995, dated 1998)

Target: T1, hGPR81 (SSTR1) (Homo sapiens, UniProt P30872)
T1 construct: in vitro transcribed RNA injected into Xenopus laevis oocytes
Assay: Ca^2+ efflux in oocytes injected with hGPR81 RNA
Format: cell-based
Settings: laevis oocytes injected with in vitro transcribed RNA
Protocol: Since the presence of a short cytoplasmic loop connecting transmembrane segments M5-M6 is a feature of G protein-coupled receptors that bind peptide hormones and neuropeptides (E. M. Ross, 1990), peptides known to regulate hormone secretion from pancreatic islets were tested as ligands for hGPR81. Initial attempts to identify the ligand for hGPR81 by injecting RNA transcribed in vitro into fenopus laevis oocytes (Kayano et al., 1990) and assessing changes in basal or stimulated cAMP levels in response to […] [calcitonin-gene-related peptide, gastric inhibitory polypeptide, glucagon, glucagon-like peptide 1-(7-36 amide), and vasoactive intestinal peptide], or Ca^2+ efflux (Williams et al., 1988) (angiotensin II, bombesin, cholecystokinin, and vasopressin) were unsuccessful. The binding of radiolabeled peptides (galanin, glucagon and somatostatin) to COS-7 cells transiently expressing hGPR81 was attempted, as well.

T1 sequence (P30872 whole entry): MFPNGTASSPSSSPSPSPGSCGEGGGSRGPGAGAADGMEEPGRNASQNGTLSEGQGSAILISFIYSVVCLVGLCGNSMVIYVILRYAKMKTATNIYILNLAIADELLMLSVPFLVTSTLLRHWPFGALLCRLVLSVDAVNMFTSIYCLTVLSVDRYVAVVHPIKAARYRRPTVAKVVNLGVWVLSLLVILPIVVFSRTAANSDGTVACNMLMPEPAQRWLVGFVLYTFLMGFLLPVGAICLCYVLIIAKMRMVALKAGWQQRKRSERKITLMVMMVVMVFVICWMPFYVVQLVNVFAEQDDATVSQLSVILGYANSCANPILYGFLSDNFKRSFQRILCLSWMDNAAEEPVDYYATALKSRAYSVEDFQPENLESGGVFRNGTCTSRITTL

B1: cholecystokinin: peptide known to regulate hormone secretion from pancreatic islets (peptide, UniProt P06307 21-115, looked up)
Cholecystokinin: QPVPPADPAGSGLQRAEEAPRRQLRVSQRTDGESRAHLGALLARYIQQARKAPSGRMSIVKNLQNLDPSHRISDRDYMGWMDFGRRSAEEYEYPS
modifications: Cholecystokinin
notes: peptide known to regulate hormone secretion from pancreatic islets
identification as ligand for hGPR81 by Ca^2+ efflux: unsuccessful
